Experimental data: patent US20220332795A1 (ARO BIOTHERAPEUTICS, published 2022)
Numbering of substitutions follows the chain as printed.

B1: SEQ ID NO 174 (designed binder)
chain: MLPAPKNLVVSRVTEDSARLSWTAPDAAFDSFFIGYLEPQPPGEAIQLWVPGSERSYDLTGLKPGTEYNVTIQGVKGGFPSMPLSAIFTT
notes: FN3 domain
B2: SEQ ID NO 110 (designed binder)
chain: B1 chain with Q47Y, W49T, M82Y, S85D, I87S
notes: FN3 domain
B3: SEQ ID NO 114 (designed binder)
chain: B1 chain with A24T, Q47S, W49Q, M82S, S85F, I87V
notes: FN3 domain
B4: SEQ ID NO 108 (designed binder)
chain: B1 chain with W49R
notes: FN3 domain
B5: SEQ ID NO 107 (designed binder)
chain: MSLPAPKNLVVSRVTEDSARLSWTAPDAAFDSFYIAYAEPRPDGEAISLYVPGSERSYDLTGLKPGTEYSVLIHGVKGGLLSSPLSAISTT
notes: FN3 domain
B6: SEQ ID NO 156 (designed binder)
chain: MLPAPKNLVVSRVTEDSARLSWTAPDAAFDSFYIAYAEPRPDGEAIFLQVPGSERSYDLTGLKPGTEYSVLIHGVKGGLLSSPLAAVFTT
notes: FN3 domain
B7: SEQ ID NO 179 (designed binder)
chain: B6 chain with Y33P, F47V, Q49T, A85S, V87F
notes: FN3 domain
B8: SEQ ID NO 157 (designed binder)
chain: B6 chain with F47L, Q49H, A85S, V87I, F88S
notes: FN3 domain
B9: SEQ ID NO 180 (designed binder)
chain: B6 chain with F47A, Q49L, A85V, V87Q
notes: FN3 domain
B10: SEQ ID NO 165 (designed binder)
chain: B6 chain with F47V, V87W
notes: FN3 domain
B11: SEQ ID NO 185 (designed binder)
chain: B6 chain with F47Y, Q49G, A85R, V87K
notes: FN3 domain
B12: SEQ ID NO 193 (designed binder)
chain: B6 chain with F47S, Q49S, A85I, V87N
notes: FN3 domain
B13: SEQ ID NO 188 (designed binder)
chain: B6 chain with F47G, Q49G, A85D, V87S
notes: FN3 domain
B14: SEQ ID NO 178 (designed binder)
chain: B6 chain with F47Q, A85S, V87I, F88V
notes: FN3 domain
B15: SEQ ID NO 195 (designed binder)
chain: B6 chain with F47I, Q49D, A85S, A86S, V87I
notes: FN3 domain
B16: SEQ ID NO 171 (designed binder)
chain: B6 chain with F47Q, Q49W, A85D, V87Y
notes: FN3 domain
B17: SEQ ID NO 175 (designed binder)
chain: MLPAPKNLVVSRVTEDSARLSWTAPDAAFDSFRISYCETFYHGEAIVLTVPGSERSYDLTGLKPGTEYSVLIHGVKGGLLSSPLIAKFTT
notes: FN3 domain
B18: SEQ ID NO 170 (designed binder)
chain: B6 chain with F47H, Q49L, A85L, V87H
notes: FN3 domain
B19: SEQ ID NO 183 (designed binder)
chain: B6 chain with F47L, Q49D, L79F, L80P, S82M, A85S, V87I
notes: FN3 domain
B20: SEQ ID NO 166 (designed binder)
chain: B6 chain with A85N, V87F
notes: FN3 domain
B21: SEQ ID NO 194 (designed binder)
chain: B6 chain with F47A, Q49L, A85S, V87I, F88V
notes: FN3 domain
B22: SEQ ID NO 169 (designed binder)
chain: B6 chain with F47L, Q49L, A85S
notes: FN3 domain
B23: SEQ ID NO 164 (designed binder)
chain: B6 chain with F47I, Q49R, A85V, V87I
notes: FN3 domain
B24: SEQ ID NO 190 (designed binder)
chain: B6 chain with F47S, Q49D, A85E, V87S
notes: FN3 domain
B25: SEQ ID NO 158 (designed binder)
chain: B6 chain with F47I, A85S
notes: FN3 domain
B26: SEQ ID NO 186 (designed binder)
chain: B6 chain with F47Q, Q49G, A85S, V87I
notes: FN3 domain
B27: SEQ ID NO 167 (designed binder)
chain: B6 chain with Y33F, A35G, A37L, R40Q, D42P, F47I, Q49G, A85H, V87Y, F88S
notes: FN3 domain
B28: SEQ ID NO 182 (designed binder)
chain: B6 chain with F47D, Q49H, A85H, V87L
notes: FN3 domain
B29: SEQ ID NO 189 (designed binder)
chain: B6 chain with F47Q, Q49T, L62P, S69W, H73Q, L79G, L80S, S82V, A85V, V87Y
notes: FN3 domain
B30: SEQ ID NO 200 (designed binder)
chain: B6 chain with F47W, Q49E, A85V, V87D
notes: FN3 domain
B31: SEQ ID NO 160 (designed binder)
chain: B6 chain with F47V, Q49T, A85L, V87Y
notes: FN3 domain
B32: SEQ ID NO 159 (designed binder)
chain: B6 chain with F47Y, Q49K, A85V, V87H
notes: FN3 domain
B33: SEQ ID NO 197 (designed binder)
chain: B6 chain with F47K, Q49D, A85V, V87F
notes: FN3 domain
B34: SEQ ID NO 198 (designed binder)
chain: B6 chain with F47I, Q49E, A85V, V87Y
notes: FN3 domain
B35: SEQ ID NO 199 (designed binder)
chain: B6 chain with F47H, Q49W, A85H, V87D
notes: FN3 domain
B36: SEQ ID NO 196 (designed binder)
chain: B6 chain with F47V, Q49W, A85R, V87S
notes: FN3 domain
B37: SEQ ID NO 201 (designed binder)
chain: B6 chain with F47S, Q49W, A85L, V87H
notes: FN3 domain

target: T1, recombinant biotinylated human CD71 extracellular domain (human, UniProt P02786 89-760, biotinylated); experiment: solution ELISA, signal ratio to HSA
T1 construct: extracellular domain; also called hCD71; huCD71 ECD
T1 sequence (P02786 other isoform, or with tags, fused parts or gaps): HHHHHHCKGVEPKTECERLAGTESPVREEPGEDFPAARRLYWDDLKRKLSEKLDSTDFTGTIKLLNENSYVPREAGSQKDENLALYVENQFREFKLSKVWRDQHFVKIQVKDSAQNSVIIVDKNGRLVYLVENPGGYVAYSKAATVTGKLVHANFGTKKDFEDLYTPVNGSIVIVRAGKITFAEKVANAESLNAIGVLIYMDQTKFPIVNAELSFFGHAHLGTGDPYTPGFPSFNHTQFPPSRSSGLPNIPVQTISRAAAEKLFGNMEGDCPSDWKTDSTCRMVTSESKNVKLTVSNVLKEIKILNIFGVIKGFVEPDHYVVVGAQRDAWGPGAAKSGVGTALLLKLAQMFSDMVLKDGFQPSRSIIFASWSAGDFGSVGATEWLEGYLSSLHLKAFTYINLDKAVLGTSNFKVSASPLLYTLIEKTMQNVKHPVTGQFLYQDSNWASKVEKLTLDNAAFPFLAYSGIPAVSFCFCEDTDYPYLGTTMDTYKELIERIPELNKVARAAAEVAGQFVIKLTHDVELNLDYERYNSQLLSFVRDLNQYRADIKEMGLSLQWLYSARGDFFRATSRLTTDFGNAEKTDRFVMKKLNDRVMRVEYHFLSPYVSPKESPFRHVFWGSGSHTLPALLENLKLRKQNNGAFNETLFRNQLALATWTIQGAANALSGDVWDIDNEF

Row | Binder | hCD71:HSA
1 | B1 | 61.7
2 | B2 | 60
3 | B3 | 121
4 | B4 | 69.6
5 | B5 | 21.8
6 | B6 | 104
7 | B7 | 127
8 | B8 | 94.9
9 | B9 | 61.6
10 | B10 | 175
11 | B11 | 44
12 | B12 | 61.2
13 | B13 | 13.3
14 | B14 | 45
15 | B15 | 103
16 | B16 | 35.3
17 | B17 | 313
18 | B18 | 19.6
19 | B19 | 50.3

Row | Binder | hCD71:HSA
20 | B20 | 34
21 | B21 | 39
22 | B22 | 241
23 | B23 | 147
24 | B24 | 16.4
25 | B25 | 312
26 | B26 | 50.6
27 | B27 | 23.2
28 | B28 | 14.5
29 | B29 | 21.5
30 | B30 | 51.6
31 | B31 | 203
32 | B32 | 14.4
33 | B33 | 29.6
34 | B34 | 186
35 | B35 | 24.3
36 | B36 | 84.6
37 | B37 | 14

target: T2, CD71 apical domain (UniProt P02786 189-383, limits assumed); experiment: solution ELISA, signal ratio to HSA
T2 construct: domain: Apical domain
T2 sequence (P02786 189-383 limits assumed): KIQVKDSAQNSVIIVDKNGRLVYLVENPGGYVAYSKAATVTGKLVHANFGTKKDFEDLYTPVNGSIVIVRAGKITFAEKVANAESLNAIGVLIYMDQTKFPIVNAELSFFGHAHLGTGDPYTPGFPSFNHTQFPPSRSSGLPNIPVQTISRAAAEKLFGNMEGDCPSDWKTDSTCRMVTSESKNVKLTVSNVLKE

Row | Binder | apical domain:HSA
38 | B1 | 157
39 | B2 | 75.8
40 | B3 | 289
41 | B4 | 182
42 | B5 | 95.8
43 | B6 | 286
44 | B7 | 252
45 | B8 | 194
46 | B9 | 366
47 | B10 | 299
48 | B11 | 369
49 | B12 | 219
50 | B13 | 195
51 | B14 | 257
52 | B15 | 177
53 | B16 | 296
54 | B17 | 519
55 | B18 | 117
56 | B19 | 310

Row | Binder | apical domain:HSA
57 | B20 | 170
58 | B21 | 273
59 | B22 | 420
60 | B23 | 328
61 | B24 | 208
62 | B25 | 500
63 | B26 | 322
64 | B27 | 0.7
65 | B28 | 209
66 | B29 | 0.8
67 | B30 | 339
68 | B31 | 378
69 | B32 | 345
70 | B33 | 144
71 | B34 | 342
72 | B35 | 324
73 | B36 | 235
74 | B37 | 32.2

target: T1, recombinant biotinylated human CD71 …; experiment: solution ELISA

Row | Binder | hCD71, RLU [RLU]
75 | B1 | 1.9e+06
76 | B2 | 636000
77 | B3 | 2.6e+06
78 | B4 | 932000
79 | B5 | 1.36e+06
80 | B6 | 2.46e+06
81 | B7 | 3.68e+06
82 | B8 | 3.61e+06
83 | B9 | 653000
84 | B10 | 4.91e+06
85 | B11 | 652000
86 | B12 | 1.71e+06
87 | B13 | 358000
88 | B14 | 865000
89 | B15 | 4.27e+06
90 | B16 | 653000
91 | B17 | 4.32e+06
92 | B18 | 814000
93 | B19 | 1.13e+06

Row | Binder | hCD71, RLU [RLU]
94 | B20 | 1.22e+06
95 | B21 | 682000
96 | B22 | 4.14e+06
97 | B23 | 3.78e+06
98 | B24 | 385000
99 | B25 | 4.99e+06
100 | B26 | 844000
101 | B27 | 4.17e+06
102 | B28 | 197000
103 | B29 | 2.57e+06
104 | B30 | 930000
105 | B31 | 4.46e+06
106 | B32 | 185000
107 | B33 | 1.4e+06
108 | B34 | 3.91e+06
109 | B35 | 416000
110 | B36 | 2.13e+06
111 | B37 | 3.25e+06

target: T2, CD71 apical domain; experiment: solution ELISA

Row | Binder | Apical domain, RLU [RLU]
112 | B1 | 4.83e+06
113 | B2 | 803000
114 | B3 | 6.22e+06
115 | B4 | 2.44e+06
116 | B5 | 5.99e+06
117 | B6 | 6.71e+06
118 | B7 | 7.29e+06
119 | B8 | 7.39e+06
120 | B9 | 3.88e+06
121 | B10 | 8.37e+06
122 | B11 | 5.46e+06
123 | B12 | 6.12e+06
124 | B13 | 5.24e+06
125 | B14 | 4.95e+06
126 | B15 | 7.35e+06
127 | B16 | 5.48e+06
128 | B17 | 7.16e+06
129 | B18 | 4.86e+06
130 | B19 | 6.95e+06

Row | Binder | Apical domain, RLU [RLU]
131 | B20 | 6.08e+06
132 | B21 | 4.78e+06
133 | B22 | 7.21e+06
134 | B23 | 8.42e+06
135 | B24 | 4.89e+06
136 | B25 | 8.01e+06
137 | B26 | 5.38e+06
138 | B27 | 128000
139 | B28 | 2.84e+06
140 | B29 | 98900
141 | B30 | 6.1e+06
142 | B31 | 8.31e+06
143 | B32 | 4.43e+06
144 | B33 | 6.78e+06
145 | B34 | 7.2e+06
146 | B35 | 5.56e+06
147 | B36 | 5.93e+06
148 | B37 | 7.5e+06
